# Laboratory results: patent US8221773B2, “Hydrogels and uses thereof” (University of Delaware, priority 2004, dated 2012)
# Where no end group is shown, it is not given here.
# Experiments:
# [1] = Hydrogelation by folding and self-assembly; format: physicochemical; details: pH 9, heating/cooling cycles
# Method: The ability of MAX1 to undergo hydrogelation is dependent upon its unimolecular folded state. Under basic aqueous solution conditions (pH 9.0, 125 mM Borate, 10 mM NaCl), where some of the lysine side chains of MAX1 are neutral, this peptide intramolecularly folds into an amphiphilic β-hairpin (folding can also be triggered at pH 7 under physiological conditions). One face of the hairpin is lined with hydrophobic valine residues while the other face is lined with hydrophilic lysine residues, FIGS. 2 and 3A. After intramolecular folding, subsequent self-assembly of hairpins is facilitated (a) laterally via H-bond formation and attractive hydrophobic interactions between distinct hairpins as well as (b) facially by hydrophobic association of the valine-rich faces of the folded peptide resulting in hydrogelation, FIG. 3B. Since the charged state of the lysine residues are controlled by pH, the unimolecular folding is reversible. Lowering the pH below the intrinsic pKa of the lysine side chains results in intra-strand charge repulsion from neighboring lysines and subsequent unfolding of individual hairpins, ultimately dissolving the self-assembled hydrogel structure. This reversible behavior is unique when compared to β-sheet-rich hydrogels prepared from classical fibril-based designs. In these systems, the self-assembly process is irreversible.
# There are reports of large polymers that are thermally responsive. The present invention provides the first system that employs temperature triggered folding to induce self-assembly. […] Heating the solution to 80° C. results in a spectra consistent with β-sheet structure. […] The temperatures used in both CD and rheology bracket the temperature (Tgel=60° C., FIG. 9) at which folding and consequent self-assembly is triggered. […] For example, free flowing peptide solutions could be prepared at room temperature and administered in vivo where the temperature of the body could induce gelation. Some Poly-N-isopropylacrylamide polymers have been engineered have been engineered to undergo such transitions ultimately affording extracellular-like scaffolds for tissue regeneration. The above studies support the idea that the formation of hydrophobic interactions are important. MAX1-3 all contain valines and threonines at hydrogen bonded positions. At these positions, their side chains prefer to adopt a trans rotamer. As a result, hydrophobic residues that oppose each other across the hairpin point their side chains in opposite directions thus making the formation of intramolecular hydrophobic interactions across the strands difficult, FIG. 11A. However, these side chains are nicely positioned to interact laterally with the hydrophobic side chains of neighboring hairpins in the self-assembled state, FIG. 11B. Forming these lateral hydrophobic interactions should favor self-assembly. […] In MAX4, opposing valine side chains are expected to point towards each other, FIG. 11B. Thus, the valine side chains of MAX4 are less likely than those in MAX1 to form lateral intermolecular hydrophobic interactions. If the formation of lateral intermolecular hydrophobic interactions is of more importance for self-assembly than intramolecular hydrophobic contacts, then the rate of self-assembly should be faster for MAX1 than for MAX4. This difference in rate should be evident in the rate of storage moduli (rigidity) increase. […] (Tgel=20° C. for both peptides). […]
# [2] = CD spectroscopy of peptide folding (random coil vs β-sheet); format: physicochemical
# Method: Time-dependent circular dichroism (CD) studies support a hydrogelation mechanism consistent with intramolecular hairpin formation followed by self-assembly. […] At temperatures >25° C. the folding and self-assembly of MAX1 occurs on the order of seconds. […] This behavior is consistent across all spectro- and microscopic methods used to interrogate MAX1. For example, at micromolar concentrations used for the CD studies shown in FIGS. 4A and 4B, self-assembly takes hours at 20° C. At millimolar concentrations, such as those used in the rheological studies described below, self-assembly leading to hydrogel takes minutes at 20° C.
# The reversibility of the folding and self-assembly process was investigated by measuring θ216 as a function of pH and time as shown in FIG. 4C. CD of a stirred solution of MAX1 at pH 5.5 indicates random coil conformation. Adjusting the pH to 9.0 by the addition of NaOH results in β-sheet formation as expected. However, subsequent adjustment of the pH to 6.0 results in complete loss of sheet signal and full recovery of random coil signal. […] Again, this reversible behavior is not observed in hydrogels formed from amyloid/prion-like fibrils.
# In some embodiments of the invention, various functionalities (e.g., cell adhesion epitopes, receptor agonists, receptor antagonists, ligands, small molecules, etc) may be incorporated into the hairpin hydrogel scaffold. One way to accomplish this would be to functionalize one or more amino acid side chains of the peptide. […] In some embodiments, the moieties to be incorporated at a particular side chain may be much larger (e.g. RGD-based motifs) and may contain charged residues. MAX5 (VKVKVKVKV^DPPTKVKEKVKV-NH2) was prepared to investigate the possibility of incorporating a charged residue on the hydrophobic face of MAX1. The sequence contains a glutamic acid residue at position 16 which is negatively charged at basic pH where MAX1 normally folds and assembles. […] However, alterations to the hydrophilic face of MAX1 are well tolerated. Sequences in which one or two lysine residues are replaced with other residues such as cysteine, serine, and glutamic acid are capable of folding and self-assembly into rigid hydrogels (data not shown).
# The peptides described above contain identical turn sequences, namely (-V^DPPT-). This sequence has a strong propensity to form a type II′ turn and therefore helps to drive intramolecular folding. Since intramolecular folding must occur prior to self-assembly, alterations to this turn sequence that inhibit turn structure formation can be used to modulate intramolecular folding and self-assembly leading to hydrogelation. MAX9 was prepared to probe the importance of the turn region (VKVKVKVKV^LPPTKVKVKVKV-NH2). […]
sequence,measurement,setting,value
VKVKVKVK V^DPPT KVKVKVKV-NH2 (not fully specified (C-terminus)) [MAX1],reversibility of thermally induced hydrogelation,[1],not reversible
same,time to plateau of β-sheet formation (ellipticity at 218 nm),"[2]; 2.0 wt %, pH 7.4, 150 mM KF, 37° C",15 min
same,reversibility of folding and self-assembly with pH,"[2]; stirred 300 μM solution, pH 5.5 to 9.0 to 6.0, 20° C",reversible
